From PMC5881448 (The Journal of General Physiology, 2018) come the findings set out here.

Assay [1] addresses mEAG1 intrinsic-ligand peptide (mEAG1#696–702), fluorescein-labeled (mouse). The assay can be described thus: fluorescence polarisation.
The target of assay [2] is hERG1 intrinsic-ligand peptide (hERG1#857–863), fluorescein-labeled (human) (UniProt Q12809). The experiment in a line: fluorescence polarisation. In general terms: Fluorescence polarisation rises when a labelled molecule tumbles more slowly, as on binding a larger partner.
Sequence of UniProt Q12809 (Q12809 whole entry, looked up, tested part not stated): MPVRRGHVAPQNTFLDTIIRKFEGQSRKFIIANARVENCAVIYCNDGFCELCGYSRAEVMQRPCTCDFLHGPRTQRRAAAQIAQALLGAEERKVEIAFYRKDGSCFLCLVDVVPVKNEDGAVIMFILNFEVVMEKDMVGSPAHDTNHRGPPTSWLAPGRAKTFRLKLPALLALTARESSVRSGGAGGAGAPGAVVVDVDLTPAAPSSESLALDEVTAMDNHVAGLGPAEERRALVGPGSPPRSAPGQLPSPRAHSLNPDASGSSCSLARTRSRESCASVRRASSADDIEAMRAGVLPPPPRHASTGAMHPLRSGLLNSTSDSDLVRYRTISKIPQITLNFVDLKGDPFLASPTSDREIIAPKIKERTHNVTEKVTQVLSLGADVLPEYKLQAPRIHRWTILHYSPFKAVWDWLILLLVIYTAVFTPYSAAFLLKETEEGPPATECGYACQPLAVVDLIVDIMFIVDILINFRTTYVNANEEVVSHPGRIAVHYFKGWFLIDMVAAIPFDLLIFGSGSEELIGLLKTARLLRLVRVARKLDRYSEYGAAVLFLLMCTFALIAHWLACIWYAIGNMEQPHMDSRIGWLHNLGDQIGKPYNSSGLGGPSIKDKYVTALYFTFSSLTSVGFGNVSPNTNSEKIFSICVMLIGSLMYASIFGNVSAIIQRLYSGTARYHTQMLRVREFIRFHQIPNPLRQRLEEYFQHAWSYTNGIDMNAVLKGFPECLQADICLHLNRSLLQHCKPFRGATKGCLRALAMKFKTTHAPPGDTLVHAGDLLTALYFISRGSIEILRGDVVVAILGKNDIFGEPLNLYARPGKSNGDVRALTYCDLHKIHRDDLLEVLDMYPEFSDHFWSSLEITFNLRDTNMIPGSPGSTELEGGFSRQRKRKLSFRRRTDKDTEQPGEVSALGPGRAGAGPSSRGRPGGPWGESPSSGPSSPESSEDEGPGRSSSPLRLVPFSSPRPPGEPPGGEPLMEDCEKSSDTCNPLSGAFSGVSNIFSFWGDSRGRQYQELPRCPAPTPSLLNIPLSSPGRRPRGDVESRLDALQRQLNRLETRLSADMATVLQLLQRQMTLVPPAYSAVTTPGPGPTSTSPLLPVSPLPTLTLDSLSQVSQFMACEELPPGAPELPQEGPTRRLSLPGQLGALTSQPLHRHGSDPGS
Assay [3] concerns zELKΔ740–742 channels. The class given is cell-based, Danio rerio. Particulars: inside-out patches, X. laevis oocytes, with or without MgATP.

Where no end group is shown, it is not given here.

In general, Kd refers to the free concentration of one partner at which half of the binding sites on the other are occupied at equilibrium, for simple one-to-one binding. As for “MBP–C-linker/CNBHD of zELK channel (Q543–L750), wild type (domain or fragment)”, the Kd in assay [1] turned out to be 85 µM.

As for “MBP–C-linker/CNBHDΔ740–742 of zELK channel (Q543–L750 without Y740–L742) (domain or fragment)”, the Kd in assay [2] was 90 µM; in assay [1], 37 µM.

For “hERG1 peptide: intrinsic-ligand peptide from hERG1 channels (#857–863) (EITFNLR; also: fluorescein label, position not given here)”, the “modulation of zELKΔ740–742 channels regardless of MgATP” value in assay [3] is “did not produce an appreciable amount of modulation”.
